Measured values: patent US20250346589A1, “RADIOISOTOPE LABELED SSTR2-AGONISTS WITH LINKERS” (Erasmus University Medical Center Rotterdam, priority 2022, published 2025)

Legend:
in vitro = in vitro ADME; conditions: for remaining at 1 h / remaining at 4 h / remaining at 24 h: mouse, serum, Stability in mouse serum (%)
Protocol: The ^203Pb-labelled compounds (˜2 MBq) or the ^212Pb-labelled compounds (˜70 kBq) were incubated in 300 μL of phosphate buffered saline (PBS; 0.1 M, pH 7.4) or mouse serum at 37° C. Stability of the radiolabed peptides was monitored at 1, 4 and 24 h post incubation. The samples in PBS were directly analyzed by radio-HPLC without any pretreatment. However, samples in mouse serum were mixed with an equal volume of acetonitrile to precipitate the proteins. The solution was centrifuged twice for 5 min at 13,000 rpm, and the supernatant was analyzed by radio-HPLC using Method 1 for lead-203 and Method 2 for lead-212.

[1] = test system: H69-tumor xenograft and organs; parameters: species or system mice; conditions: mouse, in vivo, iv
Protocol: Six-week-old male Balb/c nu/nu-specific and opportunistic pathogen-tree (SOPF) mice (Janvier Labs, Le Genest-Saint-Isle, France) were housed in individually ventilated cages, with 4 mice per cage. Upon arrival, mice were acclimated for 1 week, with access to food and water ad libitum. Mice were subcutaneously inoculated on the right shoulder with NCI-H69 cells (5×10^6 cells suspended in 100 μL of ⅓ Matrigel (Corning Inc., Corning, NY, USA) and ⅔ Hank's balanced salt solution (Gibco). NCI-H69 xenografts were allowed to grow for 3 weeks. Tumor sizes were 391±173 mm^3 at the start of the studies. All animal experiments were approved by the Animal Welfare Committee of the Erasmus MC and were conducted in agreement with institutional guidelines (license number: AVD101002017867).
Biodistribution studies were performed to determine tumor and organ uptake of [^212Pb]Pb-DOTAMTATE, [^212Pb]Pb-DOTAM-Amcha-TATE or [^212Pb]Pb-DOTAM-Pip-TATE. Animals (n=4 for each time point and each compound) were injected intravenously with an average of 100 kBq/0.5 nmol at t=0. At 3 selected time points (1, 4 and 24 h) p.i. blood was collected via cardiac puncture under isoflurane/O2 anesthesia, after which the mice were sacrificed. The tumor and organs of interest (prostate, pancreas, spleen, liver, GI tract (stomach, small intestine, large intestine), kidneys, lungs, heart, muscle, bone and tail) were excised, washed in PBS and blotted dry. To confirm receptor specificity of the 3 radiotracers uptake, NCI-H69-xenografted mice were co-injected with [212Pb] Pb-DOTAMTATE, [^212Pb]Pb-DOTAM-Amcha-TATE or [^212Pb]Pb-DOTAM-Pip-TATE plus an excess (25 nmol) of the respective unlabelled peptide (n=3), after which tumor and organ uptake was determined at 24 h p.i. The blood, tumor, and relevant organs were weighed and measured in a γ-counter. To determine the total injected radioactivity per animal, calibration curve with lead-212 was determined. The percentage of injected dose per gram (% ID/g) was determined for each tissue sample and corrected for both the injected volume and % ID present at the injection site (the tail). […] Pb-DOTAMTATE. In Table 3, the absorbed dose per administered activity (Gy/MBq; with RBE=5) in H69-tumor xenograft and organs for [^212Pb]Pb-DOTAM-TATE, [^212Pb]Pb-DOTAM-Amcha-TATE and [^212Pb]Pb-DOTAM-Pip-TATE is given.

Row | SMILES | Stability in mouse serum (%) (in vitro; 1 h) | Stability in mouse serum (%) (in vitro; 4 h) | Stability in mouse serum (%) (in vitro; 24 h) | remaining at 1 h (in vitro) | remaining at 4 h (in vitro) | remaining at 24 h (in vitro) | other results
1 | C[C@@H](O)[C@H](NC(=O)[C@@H]1CSSC[C@H](NC(=O)[C@@H](Cc2ccccc2)NC(=O)CN2CCN(CC(N)=O)CCN(CC(N)=O)CCN(CC(N)=O)CC2)C(=O)N[C@@H](Cc2ccc(O)cc2)C(=O)N[C@H](Cc2c[nH]c3ccccc23)C(=O)N[C@@H](CCCCN)C(=O)N[C@@H]([C@@H](C)O)C(=O)N1)C(=O)O [[^203Pb]Pb-DOTAM-TATE] [metal not drawn, reference compound] | 99% | 99% | 99% |  |  |  | 
2 | C[C@@H](O)[C@H](NC(=O)[C@@H]1CSSC[C@H](NC(=O)[C@@H](Cc2ccccc2)NC(=O)[C@H]2CC[C@H](CNC(=O)CN3CCN(CC(N)=O)CCN(CC(N)=O)CCN(CC(N)=O)CC3)CC2)C(=O)N[C@@H](Cc2ccc(O)cc2)C(=O)N[C@H](Cc2c[nH]c3ccccc23)C(=O)N[C@@H](CCCCN)C(=O)N[C@@H]([C@@H](C)O)C(=O)N1)C(=O)O [[^212Pb]Pb-DOTAM-Amcha-TATE] [metal not drawn] |  |  |  |  |  |  | Absorbed dose per administered activity, Kidneys [1]: 121.73 ± 14.57 Gy/MBq; Absorbed dose per administered activity, Large Intestines [1]: 2.03 ± 0.26 Gy/MBq; Absorbed dose per administered activity, Liver [1]: 9.03 ± 2.24 Gy/MBq; Absorbed dose per administered activity, Lung [1]: 3.20 ± 0.40 Gy/MBq; Absorbed dose per administered activity, Pancreas [1]: 5.40 ± 0.14 Gy/MBq; Absorbed dose per administered activity, Spleen [1]: 0.73 ± 0.19 Gy/MBq; Absorbed dose per administered activity, Stomach wall [1]: 5.78 ± 0.77 Gy/MBq; Absorbed dose per administered activity, Tumor [1]: 35.49 ± 9.89 Gy/MBq
3 | C[C@@H](O)[C@H](NC(=O)[C@@H]1CSSC[C@H](NC(=O)[C@@H](Cc2ccccc2)NC(=O)CN2CCC(NC(=O)CN3CCN(CC(N)=O)CCN(CC(N)=O)CCN(CC(N)=O)CC3)CC2)C(=O)N[C@@H](Cc2ccc(O)cc2)C(=O)N[C@H](Cc2c[nH]c3ccccc23)C(=O)N[C@@H](CCCCN)C(=O)N[C@@H]([C@@H](C)O)C(=O)N1)C(=O)O [[^203Pb]Pb-DOTAM-Pip-TATE] [metal not drawn] | 97% | 97% | 97% |  |  |  | 
4 | C[C@@H](O)[C@H](NC(=O)[C@@H]1CSSC[C@H](NC(=O)[C@@H](Cc2ccccc2)NC(=O)CN2CCN(CC(N)=O)CCN(CC(N)=O)CCN(CC(N)=O)CC2)C(=O)N[C@@H](Cc2ccc(O)cc2)C(=O)N[C@H](Cc2c[nH]c3ccccc23)C(=O)N[C@@H](CCCCN)C(=O)N[C@@H]([C@@H](C)O)C(=O)N1)C(=O)O [[^212Pb]Pb-DOTAM-TATE, metal not drawn, reference compound] |  |  |  | 99% | 99% | 97% | 
5 | C[C@@H](O)[C@H](NC(=O)[C@@H]1CSSC[C@H](NC(=O)[C@@H](Cc2ccccc2)NC(=O)CN2CCC(NC(=O)CN3CCN(CC(N)=O)CCN(CC(N)=O)CCN(CC(N)=O)CC3)CC2)C(=O)N[C@@H](Cc2ccc(O)cc2)C(=O)N[C@H](Cc2c[nH]c3ccccc23)C(=O)N[C@@H](CCCCN)C(=O)N[C@@H]([C@@H](C)O)C(=O)N1)C(=O)O [[^212Pb]Pb-DOTAM-Pip-TATE, metal not drawn] |  |  |  | 99% | 99% | 96% | 
6 | C[C@@H](O)[C@H](NC(=O)[C@@H]1CSSC[C@H](NC(=O)[C@@H](Cc2ccccc2)NC(=O)[C@H]2CC[C@H](CNC(=O)CN3CCN(CC(N)=O)CCN(CC(N)=O)CCN(CC(N)=O)CC3)CC2)C(=O)N[C@@H](Cc2ccc(O)cc2)C(=O)N[C@H](Cc2c[nH]c3ccccc23)C(=O)N[C@@H](CCCCN)C(=O)N[C@@H]([C@@H](C)O)C(=O)N1)C(=O)O [[^203Pb]Pb-DOTAM-Amcha-TATE] [metal not drawn] | 100% | 100% | 100% |  |  |  | 
7 | C[C@@H](O)[C@H](NC(=O)[C@@H]1CSSC[C@H](NC(=O)[C@@H](Cc2ccccc2)NC(=O)CN2CCN(CC(N)=O)CCN(CC(N)=O)CCN(CC(N)=O)CC2)C(=O)N[C@@H](Cc2ccc(O)cc2)C(=O)N[C@H](Cc2c[nH]c3ccccc23)C(=O)N[C@@H](CCCCN)C(=O)N[C@@H]([C@@H](C)O)C(=O)N1)C(=O)O [[^212Pb]Pb-DOTAM-TATE] [metal not drawn, reference compound] |  |  |  |  |  |  | Absorbed dose per administered activity, Kidneys [1]: 140.03 ± 17.95 Gy/MBq; Absorbed dose per administered activity, Large Intestines [1]: 1.64 ± 0.30 Gy/MBq; Absorbed dose per administered activity, Liver [1]: 6.93 ± 0.64 Gy/MBq; Absorbed dose per administered activity, Lung [1]: 2.06 ± 0.29 Gy/MBq; Absorbed dose per administered activity, Pancreas [1]: 3.65 ± 0.28 Gy/MBq; Absorbed dose per administered activity, Spleen [1]: 0.56 ± 0.14 Gy/MBq; Absorbed dose per administered activity, Stomach wall [1]: 4.42 ± 1.30 Gy/MBq; Absorbed dose per administered activity, Tumor [1]: 26.61 ± 19.27 Gy/MBq
8 | C[C@@H](O)[C@H](NC(=O)[C@@H]1CSSC[C@H](NC(=O)[C@@H](Cc2ccccc2)NC(=O)[C@H]2CC[C@H](CNC(=O)CN3CCN(CC(N)=O)CCN(CC(N)=O)CCN(CC(N)=O)CC3)CC2)C(=O)N[C@@H](Cc2ccc(O)cc2)C(=O)N[C@H](Cc2c[nH]c3ccccc23)C(=O)N[C@@H](CCCCN)C(=O)N[C@@H]([C@@H](C)O)C(=O)N1)C(=O)O [[^212Pb]Pb-DOTAM-Amcha-TATE, metal not drawn] |  |  |  | 96% | 96% | 93% | 
